{"source": "paper PMC8390506", "about": "“Interaction of spindle assembly factor TPX2 with importins-α/β inhibits protein phase separation” (The Journal of Biological Chemistry, 2021)", "key": {"[1]": {"target": "the molecule itself", "assay": "SEC-MALS; Superdex-200-increase 3.2/300; importin-αΔIBB alone and TPX2 (2 μM) with importin-αΔIBB (20 μM)"}, "[2]": {"target": "T1, Targeting Protein for XKlp2 (TPX2), full length, wild type (Xenopus laevis, UniProt Q6NUF4 1-716)", "T1 construct": "TPX2, Xenopus laevis, full length; 1 to 716; Named GFP-TPX2 for SEC-MALS; also called GFP-TPX2; wt-TPX2; source: recombinant, purified to >95% purity", "T1 sequence (looked up)": "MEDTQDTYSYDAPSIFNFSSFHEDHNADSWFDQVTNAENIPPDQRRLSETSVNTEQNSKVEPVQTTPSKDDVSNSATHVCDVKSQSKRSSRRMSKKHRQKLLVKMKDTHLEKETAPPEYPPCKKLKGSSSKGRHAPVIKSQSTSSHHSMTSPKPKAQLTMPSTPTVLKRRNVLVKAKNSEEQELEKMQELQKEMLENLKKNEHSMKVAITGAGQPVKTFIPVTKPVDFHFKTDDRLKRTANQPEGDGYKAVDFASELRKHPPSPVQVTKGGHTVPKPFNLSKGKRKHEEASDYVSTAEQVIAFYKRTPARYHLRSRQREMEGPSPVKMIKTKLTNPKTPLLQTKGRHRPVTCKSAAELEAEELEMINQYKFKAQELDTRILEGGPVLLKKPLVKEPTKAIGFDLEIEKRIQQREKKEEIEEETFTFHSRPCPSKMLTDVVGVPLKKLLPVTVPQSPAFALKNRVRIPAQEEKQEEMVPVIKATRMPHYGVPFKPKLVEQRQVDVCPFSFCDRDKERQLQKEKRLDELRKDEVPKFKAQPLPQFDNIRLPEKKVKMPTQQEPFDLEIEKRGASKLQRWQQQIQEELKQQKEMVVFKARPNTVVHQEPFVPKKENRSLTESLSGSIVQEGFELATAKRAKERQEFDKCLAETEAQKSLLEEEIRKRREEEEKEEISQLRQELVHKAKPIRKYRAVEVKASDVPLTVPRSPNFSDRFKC", "assay": "SEC-MALS; Superdex-200-increase 3.2/300; importin-αΔIBB alone and TPX2 (2 μM) with importin-αΔIBB (20 μM)", "details": "both partners purified"}, "[3]": {"target": "T1, Targeting Protein for XKlp2 (TPX2), …", "assay": "cell-based or functional assay"}, "[4]": {"target": "triple-mutant TPX2 (3M-TPX2) (Xenopus laevis, UniProt Q6NUF4 1-716, K123A | K124A | K126A | K284A | R285A | K327A | K330A)", "assay": "BLI; Octet (ForteBio); TPX2 attached to sensors, importin concentration varied; normalized amplitudes; apparent Kd", "details": "both partners purified"}, "TPX2 construct 1 to 178": {"target": "T2, TPX2 construct 1 to 178 (Xenopus laevis, UniProt Q6NUF4 1-178)", "T2 construct": "TPX2, Xenopus laevis, amino acids 1-178; also called wild-type-1-178 TPX2 construct; TPX2 1 to 178; source: recombinant, purified to >95% purity", "T2 sequence (looked up)": "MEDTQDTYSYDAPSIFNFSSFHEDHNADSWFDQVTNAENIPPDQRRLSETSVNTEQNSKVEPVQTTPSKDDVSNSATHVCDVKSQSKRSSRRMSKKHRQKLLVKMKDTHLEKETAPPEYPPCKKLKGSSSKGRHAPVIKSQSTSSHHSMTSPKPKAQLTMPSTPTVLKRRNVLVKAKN", "assay": "BLI; Octet (ForteBio); TPX2 attached to sensors, importin concentration varied; normalized amplitudes; apparent Kd", "details": "both partners purified"}, "[5]": {"target": "T1, Targeting Protein for XKlp2 (TPX2), …", "assay": "BLI; Octet (ForteBio); TPX2 attached to sensors, importin concentration varied; normalized amplitudes; apparent Kd", "details": "both partners purified"}, "TPX2 construct 1 to 260": {"target": "T3, TPX2 construct 1 to 260 (Xenopus laevis, UniProt Q6NUF4 1-260)", "T3 construct": "TPX2, Xenopus laevis, amino acids 1-260; also called TPX2 1 to 260; source: recombinant, purified to >95% purity", "T3 sequence (looked up)": "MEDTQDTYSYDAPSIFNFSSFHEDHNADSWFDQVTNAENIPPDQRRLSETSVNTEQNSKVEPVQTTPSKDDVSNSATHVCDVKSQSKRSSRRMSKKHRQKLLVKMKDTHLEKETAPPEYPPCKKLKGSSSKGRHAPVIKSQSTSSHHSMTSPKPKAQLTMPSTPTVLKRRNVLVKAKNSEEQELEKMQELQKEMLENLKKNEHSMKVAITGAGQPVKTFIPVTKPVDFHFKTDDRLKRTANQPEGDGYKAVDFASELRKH", "assay": "BLI; Octet (ForteBio); TPX2 attached to sensors, importin concentration varied; normalized amplitudes; apparent Kd", "details": "both partners purified"}, "[6]": {"target": "T4, TPX2 1 to 178 with the KKLK motif mutated (K123A, K124A, K126A) (Xenopus laevis, UniProt Q6NUF4 1-178, K123A | K124A | K126A)", "T4 construct": "TPX2, Xenopus laevis, amino acids 1-178 with the lysines of KKLK (123-126) mutated to alanines; also called TPX2 1 to 178 (K123A, K124A, K126A); source: recombinant, purified to >95% purity", "T4 sequence (looked up)": "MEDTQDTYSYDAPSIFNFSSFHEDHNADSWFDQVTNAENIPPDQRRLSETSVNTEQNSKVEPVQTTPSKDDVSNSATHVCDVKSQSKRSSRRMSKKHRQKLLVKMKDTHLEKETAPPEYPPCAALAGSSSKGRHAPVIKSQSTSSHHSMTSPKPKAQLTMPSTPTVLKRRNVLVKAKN", "assay": "BLI; Octet (ForteBio); TPX2 attached to sensors, importin concentration varied; normalized amplitudes; apparent Kd", "details": "both partners purified"}}}
{"binder": "importin-αΔIBB (truncated importin-α without the importin-β-binding domain) (domain or fragment) not shown", "values": [{"measurement": "stoichiometry N", "setting": "[1]", "result": 2}, {"measurement": "stoichiometry N", "setting": "[2]", "result": "> 1 importin-αΔIBB:TPX2"}, {"measurement": "inhibition of TPX2 condensation (fluorescence microscopy; TPX2 1 μM, importin-αΔIBB 1x to 20x; enhancement at lower concentrations)", "setting": "[3]", "result": "~20", "unit": "fold excess"}, {"measurement": "Kd", "setting": "[4]", "result": "410 ± 70", "unit": "nM"}, {"measurement": "Kd", "setting": "TPX2 construct 1 to 178", "result": "15 ± 3", "unit": "nM"}, {"measurement": "Kd", "setting": "[5]", "result": "61 ± 10", "unit": "nM"}, {"measurement": "Kd", "setting": "TPX2 construct 1 to 260", "result": "20 ± 4", "unit": "nM"}, {"measurement": "fold loss of binding against the wild-type 1-178 construct", "setting": "[6]", "result": 10, "unit": "fold"}]}
